Molecular target: RAD51 (UniProt Q06609)
Test: co-immunoprecipitation, Western blot
Conditions: reference: wild-type NPM1, cisplatin; sites S260

binding against the reference: stronger
Substance: nucleophosmin 1 (NPM1) (from UniProt P06748) NPM1 S260A, cisplatin

Source: publication PMC12092789
